Among the data in patent US20240174741A1 are F635, S-Score and Z-Score values, retold here.

In the assay the target is ESYT2_Frag (human) (UniProt A0FGR8). In words: CDI HuProt native protein microarray (High-Spec cross-reactivity assay).

B1: CD1-M8 (antibody, V domains shown)
VH: EVQLQQSGPELVKPGASVKMSCKASGYTFTDYYIHWVKQSHGKGLEWIGYIFPNNGGNGYSQKFKGKATMTVDKSSSTAYMELRSLTSEDSAVYYCARGGYDAGFVYWGQGTLVTVSA
VL: DIVMSQSPSSLAVSAGEKVTMSCKSSQSLFNSGARKNFLAWYQQKPGQSPKLLIYWASTRESGVPDRFTGSGSGTDFTLTISSVQAEDLAVYYCKQSYYLITFGAGTKLELK
Take B1: the F635 was 1860, the S-Score is 2.15 and the Z-Score came out at 5.71.
